Measured values: US20190106487A1 (Sanofi, published 2019)

T1: human IL-1RAcP on 293T/17-FR cells (human, UniProt Q9NPH3 21-570)
T1 sequence (looked up): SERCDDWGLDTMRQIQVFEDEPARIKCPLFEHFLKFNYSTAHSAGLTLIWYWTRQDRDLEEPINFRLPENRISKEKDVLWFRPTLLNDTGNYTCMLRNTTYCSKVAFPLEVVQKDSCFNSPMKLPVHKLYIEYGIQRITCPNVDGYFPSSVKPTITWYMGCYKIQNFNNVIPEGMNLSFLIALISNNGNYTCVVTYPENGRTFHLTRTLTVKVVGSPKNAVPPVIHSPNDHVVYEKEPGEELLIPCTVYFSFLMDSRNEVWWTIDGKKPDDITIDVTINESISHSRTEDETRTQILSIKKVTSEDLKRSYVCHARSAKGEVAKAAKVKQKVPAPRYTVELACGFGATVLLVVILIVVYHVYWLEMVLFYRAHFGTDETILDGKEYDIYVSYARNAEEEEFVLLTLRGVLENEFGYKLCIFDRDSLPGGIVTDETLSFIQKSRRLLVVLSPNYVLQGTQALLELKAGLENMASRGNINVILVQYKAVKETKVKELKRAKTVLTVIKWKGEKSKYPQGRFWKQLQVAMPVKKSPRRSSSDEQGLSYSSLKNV

T2: rhIL-1RAcP/Fc Chimera (human, UniProt Q9NPH3 21-359)
T2 construct: also called P013_03; P013-03
T2 sequence (looked up): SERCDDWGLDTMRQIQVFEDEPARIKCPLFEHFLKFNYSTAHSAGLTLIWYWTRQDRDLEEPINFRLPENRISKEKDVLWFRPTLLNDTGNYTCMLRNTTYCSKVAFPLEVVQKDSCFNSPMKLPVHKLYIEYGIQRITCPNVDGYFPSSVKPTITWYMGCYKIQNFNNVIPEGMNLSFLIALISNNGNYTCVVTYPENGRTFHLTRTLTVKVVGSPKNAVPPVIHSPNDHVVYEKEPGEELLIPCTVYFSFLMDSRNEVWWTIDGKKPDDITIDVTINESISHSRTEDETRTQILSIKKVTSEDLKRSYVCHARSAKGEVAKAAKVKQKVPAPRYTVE


What was measured:
[1] = biological target: T1, human IL-1RAcP on 293T/17-FR cells; assay: cell-based or functional assay
rhIL-1RAcP/Fc Chimera [2] = biological target: T2, rhIL-1RAcP/Fc Chimera; assay: ELISA, recombinant purified mAb
rhIL-1RAcP/Fc Chimera [3] = biological target: T2, rhIL-1RAcP/Fc Chimera; assay: ELISA, primary supernatant, coated hu-IL-1RAcP-Fc
Source text: Microtiter plates were coated IL-1RACP and/or IL12Rβ1 protein (recombinant Fc chimeric conjugates of human IL-1RACP or IL12Rβ1). After a blocking process, specific antibodies from B-cell supernatants bind to the targets and are then detected by a POD-labeled anti-rabbit IgG antibody. The IL12Rβ1 binding was used as a counterscreen. IL-1RACP protein was tagged with a linker, huFc and His like the IL12Rβ1 protein. Antibodies which bind to the tag were positive in both assays, whereas antigen specific antibodies just bound to IL-1RACP and not to IL12Rβ1.
12.5 μL 0.5 μg/mL IL-1RACP protein in PBS was transferred to a microtiter plate, incubated and washed 3× with Wash Buffer. 90 μL Block Buffer was added to each well, incubated and washed. 12.5 μl Standard Antibody (rabbit mAb against IL-1RAcP, anti IL12Rbeta1 antibody: IL-12Rbeta1 antibody; GeneTex; Cat. No. GTX103917) or sample diluted in ELISA buffer was added, incubated and washed. 12.5 μl 1:5000 POD-Antibody (Anti-rabbit IgG, peroxidase-linked species-specific Fab2 fragment (from donkey) (ECL); assay dilution: 1:5000) in Elisa Buffer was added, incubated and washed. 15 μl TMB was added and 15 μl HCl was added after sufficient development. Absorbance (Optical Density O.D.) was read at 450 nm/620 nm.

functional reporter gene assay (% inhibition), 0.04 µg/mL mAb [1]	functional reporter gene assay (% inhibition), 0.2 µg/mL mAb [1]	functional reporter gene assay (% inhibition), 1 µg/mL mAb [1]	functional reporter gene assay (% inhibition), 5 µg/mL mAb [1]	primary supernatant functional assay (% inh.), NF-kB luciferase reporter [1]	EC50 (rhIL-1RAcP/Fc Chimera [2])	hu-IL1RaP ELISA (OD) (rhIL-1RAcP/Fc Chimera [3])	Binder
44%	60%	93%	91%	72%	0.447 µg/mL	3.4 OD	P013.S.01.B.E06 (antibody, V domains shown, rabbit monoclonal antibody; also called P013.A.00030.F07) VH: QSLEESGGDLVKPGASLTLTCTASGFSFSSTYYMCWVRQAPGKGLEWIACIYAGSSGSTYYASWAKGRFTISKTSSTTVTLQMTSLTAADTATYFCARVDGSSSGSWDLWGPGTLVTVSS VL: AIEMTQTPSSVSAAVGGTVTINCQASQNIYSNLAWYQQKPGQRPKLLIYAASLLASGVPSRFKGNGSGTEYTLTISDLESADAATYYCQGAVYSGNTEWAFGGGTEVVVK
6%	12%	16%	25%	37%	0.363 µg/mL	3.3 OD	P013.S.02.B.E03 (antibody, V domains shown, rabbit monoclonal antibody; also called P013.A.00091.A10) VH: QSVEESGGRLVTPGTPLTLTCTVSGFSLSDYYMGWVRQAPGKGLEWIGTIDGGGSTYYASWAKGRFTVSKTSTTVDLTITSPTTEDTAIYFCARNYYAGLSDVFFGWWGQGTLVTVSS VL: DVVMTQTPASVEAAVGGTVTIMCQASETIYSGLAWYQQKPGQPPKLLIYYTSSLASGVPSRFKGSGSGTEFTLTISDLESADAATYYCQTYYDSEGRSYGYNSFGGGTEVVVK
39%	62%	88%	98%	88%	0.072 µg/mL	3.3 OD	P013.S.01.B.E04 (antibody, V domains shown, rabbit monoclonal antibody; also called P013.A.00109.D07) VH: QSVEESGGRLVTPGTPLTLTCTVSGIDLNSNGINWVRQAPGKGLEWIGYIGAGDITYCASWAKGRFTISKTSSTTVDLKITSLTTEDTATYFCARWGPGALDLWGQGTLVTVSS VL: AQVLTQTASSVSATVGGTVTISCQSSQSVYNNNYLSWYQQKPGQPPKLLIYKASTLASGVPLRFSGSGSGTQFTLTISGVQSDDAATYYCAGFYETTDVGFGGGTEVVVK
75%	84%	94%	98%	97%	0.175 µg/mL	3.6 OD	P013.S.01.B.B02 (antibody, V domains shown, rabbit monoclonal antibody; also called P013.A.00014.B03) VH: LEQSGGGAEGGLVKPGGSLELCCKASGFSLSSSYWICWVRQAPGKGLEWIGCIYTGSSGITYYASWVNGRFTLSRDIDQSTGCLQLNSLTAADTAMYYCAKDGPSTLFNFWGQGTLVTVSS VL: ALVMTQTPSPVSAAVGGTVTINCQASEDIYSNLAWFQQKPGQPPKLLIYRASTLASGVPSRFKGSGSGTEFTLTISGLQSDDAATYYCLGVYTYPSADNAFGGGTEVVVR

More lines, now with the values behind:

Binder	functional reporter gene assay (% inhibition), 0.04 µg/mL mAb [1]	functional reporter gene assay (% inhibition), 0.2 µg/mL mAb [1]	functional reporter gene assay (% inhibition), 1 µg/mL mAb [1]	functional reporter gene assay (% inhibition), 5 µg/mL mAb [1]	primary supernatant functional assay (% inh.), NF-kB luciferase reporter [1]	EC50 (rhIL-1RAcP/Fc Chimera [2])	hu-IL1RaP ELISA (OD) (rhIL-1RAcP/Fc Chimera [3])
P013.S.01.B.G06 (antibody, V domains shown, rabbit monoclonal antibody; also called P013.A.00085.H05) VH: QSLEESGGRLVTPGTPLTLTCTASGFTISSYYMSWVRQAPGKGLEWIGGIATDGNTYYANWAKGRFTVSRTSTTVDLKVTSPTAEDTATYFCARGGPAYSRGTHYAMDLWGPGTLVTVSS VL: AYDMTQTPASVEVAVGGTVTIKCQASQSIYIYLAWYQQKPGQRPKQLIYDASKLASGVPSRFSGSGSGTEFTLTISGVESADAATYYCQQGATIWNVDNPFGGGTEVVVK	69%	49%	94%	96%	89%	0.115 µg/mL	3.8 OD
P013.S.01.B.C05 (antibody, V domains shown, rabbit monoclonal antibody; also called P013.A.00045.E06) VH: QSVEESGGRLVTPGTPLTLTCTVSGFSLSNYAMSWVRQAPGKGLEYIGIIDSGGSAYYATWARGRFTISRTSTTVDLKMTSPTTEDTATYFCARGGPAYSTNTHYTLDLWGPGTLVTVSS VL: AFEMTQTPSSVSEPVGGTVTIKCQASQSIYNYLSWYQQKPGQPPKLLIYDASELASGVPSRFKGSGSGTEFTLTISGVQSDDAATYYCQQGATTYNIENVFGGGTEVVVK	67%	74%	87%	95%	27%	0.038 µg/mL	2.5 OD
P013.S.01.B.C02 (antibody, V domains shown, rabbit monoclonal antibody; also called P013.A.00014.C10) VH: QSLEESGGDLVKPGASLTLTCTASGFSFSSSHYMCWVRQAPGKGLEWIACIYAGSSGNTYYANWAKGRFTISKTSSTTVTLQMTSLTAADTATYFCARVDASSSGSWDLWGPGTLVTVSS VL: AIEMTQTPFSVSAAVGGTVTINCQASESIYSNLAWYQQILGQPPKLLIYAASLLASGVPSRFKGSGSGTEYTLTISGVQSADAATYYCQSASYSTGPDWTFGGGTEVVVE	18%	78%	99%	98%	82%	0.105 µg/mL	3.4 OD
P013.S.01.B.H04 (antibody, V domains shown, rabbit monoclonal antibody; also called P013.A.00014.G05) VH: QSVEESGGRLVTPGTPLTLTCTVSGFSLDSYAMGWVRQAPGKGLEWIGIINSYGSIYYASWAKGRFTISKTSTTVDLKMTSLTTEDTATYFCARSAYSNNGDRLHLWGQGTLVTVSS VL: DIVMTQTPSPVSGAVGGTVTIKCQASEDIYSNLAWYQQKPGQPPKLLIYYVSTLESGVPSRFKGSRSGTDYTLTISDLESADAATYYCQCTEGGSGSDYTFGGGTEVVVK	10%	49%	49%	54%	35%	0.062 µg/mL	3.7 OD
P013.S.02.B.C04 (antibody, V domains shown, rabbit monoclonal antibody; also called P013.A.00085.H07) VH: QQLEQSGGGLVKPGGSLELCCKASGFSLSSSYWICWVRQAPGKGLEWIGCIYAGSSGSTYYANWVNGRFTLSRDIDQSTGCLQLSSLTAADTAMYYCARSIVDFSSGWGDLWGQGTLVTVSS VL: ALVMTQTPSPVSAAVGGTVTINCQASEDIYSNLAWYQQKPGQPPKLLMYGVSTLASGVPSRFSDSGSGTEFTLTISGLQSDDAATYYCLGVYTYISDVYYTFGGGTEVVVK	29%	26%	40%	91%	65%	0.758 µg/mL	2.7 OD
P013.S.01.B.D06 (antibody, V domains shown, rabbit monoclonal antibody; also called P013.A.00029.D02) VH: QSLEESGGDLVKPGASLTLTCTASGFSFSSSYYMCWVRQAPGKGLEWIACIYAGSSGVTYYASWAKGRFTISDTSSTTVTLQMTSLTAADTATYFCASETDGNYFNLWGPGTLVTVSS VL: ALVMTQTPSPVSAAVGGTVTINCQASEDIYSNLAWFQQKPGQPPKLLIYRASTLASGVPSRFSGSGSGTEFTLTISGLQSDDAATYYCLGVYTYSTDIHAFGGGTEVVVK	24%	66%	96%	97%	80%	0.053 µg/mL	3.7 OD
